Legend:
[1] = test system: MHV68UNG (murine gammaherpesvirus 68); assay: fluorescence anisotropy; conditions: N15 of strand 1 = abasic (AP) site made from U by UNG; G opposite
[2] = test system: MHV68UNGΔN-Ls (murine gammaherpesvirus 68 / mouse chimera); assay: fluorescence anisotropy; conditions: N15 of strand 1 = abasic (AP) site made from U by UNG; G opposite

For “AGAAAAGGGGAAAGNAAAGAGGAAAGGTGAGGAGGT / ACCTCCTCACCTTTCCTCTTTGCTTTCCCCTTTTCT [AP:G dsDNA (fluorescein)]”, the Kd [1] was 680 nM and the Kd [2] was 751 nM.

Reference: article PMC10441670
